According to publication PMC13044992:

Legend:
[1] = molecular target: S100i1 from Danio rerio (wild type) (Danio rerio) (UniProt Q6XG62); test: crystal structure; sitting-drop vapor diffusion at 291 K, 10 mg/mL protein; apo S100i1 (0.2 M Li sulfate, Tris-HCl pH 8.5, 25% PEG 4000), Na+-S100i1 (0.2 M Na acetate, Tris-HCl pH 9.5, 35% PEG 4000), Mg2+-S100i2 (0.2 M MgCl2, Tris-HCl pH 8.5, 30% PEG 4000)
[2] = molecular target: S100i1 from Danio rerio (wild type) (Danio rerio) (UniProt Q6XG62); test: SEC; 24 mL Superdex 75 Increase 10/300 GL, 20 mM Tris-HCl pH 7.5, 100 mM NaCl; self-association (homodimer)
[3] = molecular target: S100i2 from Danio rerio (wild type) (Danio rerio) (UniProt A3FKT8); test: crystal structure; sitting-drop vapor diffusion at 291 K, 10 mg/mL protein; apo S100i1 (0.2 M Li sulfate, Tris-HCl pH 8.5, 25% PEG 4000), Na+-S100i1 (0.2 M Na acetate, Tris-HCl pH 9.5, 35% PEG 4000), Mg2+-S100i2 (0.2 M MgCl2, Tris-HCl pH 8.5, 30% PEG 4000)
[4] = molecular target: S100i2 from Danio rerio (wild type) (Danio rerio) (UniProt A3FKT8); test: SEC; 24 mL Superdex 75 Increase 10/300 GL, 20 mM Tris-HCl pH 7.5, 100 mM NaCl; self-association (homodimer)

Work on “S100i1 from Danio rerio (wild type) (from UniProt Q6XG62 1-95) (natural protein)” yielded a stoichiometry N [1] of 2 and a stoichiometry N [2] of 2.
In the case of “S100i2 from Danio rerio (wild type) (from UniProt A3FKT8 1-97) (natural protein)”, the stoichiometry N [3] is reported as 2 and the stoichiometry N [4] is reported as 2.
